Test results published in paper PMC5736413 (Journal of immunology (Baltimore, Md. : 1950), 2017).

Biological target: recombinant mouse Factor H (mouse, UniProt P06909 19-1234)
Assay: SPR

recombinant mouse Factor H, sequence (P06909 19-1234): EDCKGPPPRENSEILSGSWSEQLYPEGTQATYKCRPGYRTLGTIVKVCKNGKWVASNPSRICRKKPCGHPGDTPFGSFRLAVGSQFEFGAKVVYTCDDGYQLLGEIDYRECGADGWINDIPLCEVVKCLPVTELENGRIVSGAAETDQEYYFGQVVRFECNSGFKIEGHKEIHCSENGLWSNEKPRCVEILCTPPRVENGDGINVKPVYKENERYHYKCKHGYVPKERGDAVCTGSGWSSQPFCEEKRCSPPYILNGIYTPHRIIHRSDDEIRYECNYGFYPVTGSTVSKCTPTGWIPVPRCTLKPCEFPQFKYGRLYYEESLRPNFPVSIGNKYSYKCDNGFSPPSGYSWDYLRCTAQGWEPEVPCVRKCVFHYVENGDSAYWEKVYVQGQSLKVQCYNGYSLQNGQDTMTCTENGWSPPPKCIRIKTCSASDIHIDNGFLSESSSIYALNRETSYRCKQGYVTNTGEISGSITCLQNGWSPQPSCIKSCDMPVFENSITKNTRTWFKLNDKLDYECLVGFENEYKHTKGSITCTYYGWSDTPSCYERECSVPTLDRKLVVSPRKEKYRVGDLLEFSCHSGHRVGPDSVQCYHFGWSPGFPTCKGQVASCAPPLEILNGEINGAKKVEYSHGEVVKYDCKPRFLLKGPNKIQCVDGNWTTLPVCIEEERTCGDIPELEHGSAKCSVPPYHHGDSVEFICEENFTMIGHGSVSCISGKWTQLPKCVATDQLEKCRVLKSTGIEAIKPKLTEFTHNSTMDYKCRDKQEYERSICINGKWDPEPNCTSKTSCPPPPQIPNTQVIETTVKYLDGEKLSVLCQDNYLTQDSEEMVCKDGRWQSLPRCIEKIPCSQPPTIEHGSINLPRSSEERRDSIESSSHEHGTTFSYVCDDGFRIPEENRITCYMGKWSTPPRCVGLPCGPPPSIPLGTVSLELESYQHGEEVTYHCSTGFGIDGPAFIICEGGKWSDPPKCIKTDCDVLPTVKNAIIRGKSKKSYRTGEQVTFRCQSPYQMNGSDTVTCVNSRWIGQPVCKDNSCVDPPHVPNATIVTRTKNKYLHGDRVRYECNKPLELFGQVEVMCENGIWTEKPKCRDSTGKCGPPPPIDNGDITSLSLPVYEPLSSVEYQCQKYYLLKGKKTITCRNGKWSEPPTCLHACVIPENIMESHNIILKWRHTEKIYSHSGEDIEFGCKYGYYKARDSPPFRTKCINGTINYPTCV

- Kd: 3.85 µM
B1: recombinant mouse C3d (C1010A) (domain or fragment)
chain: not shown
